# Experimental data from patent US20250027068.
# Residue numbers refer to the chain shown, from its start.
# B1: PRT-322 (protein)
# chain: MTITSVWTKGVTPPTPEDFRENNEDVLHAPYVANQGWYDITKTFDGKDNLLCGAATAGNMLHWWFDQNKEEIERYLKKHPEKQKIIFNNQELFDVKAAIDTKDSQTNSKLFDYFRDKAFPNLSARQLGVMPDLVLDMFINGYYLNLGKTQSTDVNRPYQDKDKRGGIFDAVFTRGDQTTLLTARHDLKNKGLNEISDLIKQELTEGKALALSHTYANVRINHVINLWGADFDAEGNLIAIYVTDSDANASIGMKKYFVGRNANGKVAISAKKIEGDNIGAQVLGLFTLSTGQDQWQKLS
# B2: PRT-330 (protein)
# chain: B1 chain with N88G, N121G, M130F, D176V
# B3: PRT-24 (protein)
# chain: MANQEIRYSEVTPYHVTSVWTKGVTPPANFTQGEDVFHAPYVANQGWYDITKTFNGKDDLLCGAATAGNMLHWWFDQNKDQIERYLKEHPEKQKINFNGEQMFDVKEAIDTKDSQTDSKLFEYFKEKAFPYLSTKHLGVFPDHVLDMFINGYRLSLTNHGPTPVKEGSKDPRGGIFDAVFTRGDQSKLLTSRHDFKEKTLKEISDLIKKELTEGKALGLSHTYANVRINHVINLWGADFDSNGNLKAIYVTDSDSNASIGMKKYFVGVNSAGKVAISAKEIKEDNIGAQVLGLFTLSTGQDIWNQTN
# B4: PRT-25 (protein)
# chain: B3 chain with L145I, T199N, K209Q, K246E, K282E
# B5: PRT-28 (protein)
# chain: B3 chain with E83K, K87E, S114H, T116L, I302S
# B6: PRT-30 (protein)
# chain: B3 chain with E83K, K87E, D113N, S114H, T116L, N242E, I302S
# B7: PRT-27 (protein)
# chain: B3 chain with E83K, K87E, D113N, S114H, L145I, T199N, K246E, I302S
# B8: PRT-32 (protein)
# chain: B3 chain with E83K, K87E, D113N, S114H, T116L, L145I, T199N
# B9: PRT-26 (protein)
# chain: B3 chain with K209Q, N242E
# B10: PRT-1 (protein)
# chain: B3 chain with E83K, K87E, D113N, S114H, T116L, L145I, T199N, I302S
# B11: PRT-31 (protein)
# chain: B3 chain with K87E, D113N, S114H, T116L, L145I, T199N, I302S
# B12: PRT-282 (protein)
# chain: MVTSVWTKGVTPPAKFTQGEDVFHAPYVANQGWYDITKTFNGKDDLLCGAATAGNMLHWWFDQNKEKIEAYLKKHPDKQKIMFGDQELLDVRKVINTKGDQTNSELFNYFRDKAFPNLSARRIGVMPDLVLDMFINGYYLNVYKTQTTDVNRTYQEKDRRGGIFDAVFTRGDQSKLLTSRHDFKEKNLKEISDLIKKELTEGKALGLSHTYANVRLNHVINLWGADFDSNGNLKAIYVTDSDSNASIGMKKYFVGVNSSGKVAISAKEIKEDNIGAQVLGLFTLSTGQDSWNQTN
# B13: PRT-314 (protein)
# chain: MQITSVWTKGVTPLTPEQFRENNEDVIHAPYLAHQGWYDITKAFDGKDNLLCGAATAGNMLHWWFDQNKTEIEAYLSKHPEKQKIIFGNQELFDLKAAIDTKDSQTNSQLFDYFRDKAFPNLSARQLGVMPDLVLDMFINGYYLNVGKTQSTDVNRPYQDKDKRGGIFDAVFTRGDQTTLLTARHDLKNKGLNDISTIIKQELTEGRALALSHTYANVSISHVINLWGADFNAEGELEAIYVTDSDANPSIGMKKYFVGRNAHGHVAISAKKIEGENIGAQVLGLFTLSSGKDQWQKLS
# B14: PRT-274 (protein)
# chain: MVTSVWTKGVTPPTDFIYGEDVLHAPYKAGQGWYDITKTFNGKDNLLCGAATAGNMLHWWFDQNKEQIENYLKKHPEKQKIIFNNQELFDLKAAIDTKDSQLDSKLFDYFKEKAFPNLSTKHLGVFPDHVIDMFINGYRLSLLNHGPTPVKRGSKDKRGGIFDAVFTRGVQSKLLTNRHDLKNKTLKEISDLIKQELTEGKALGISHTYANVRINHVINLWGADFDAEGNLEAIYVTDSDTNPSIGMKKYFVGVNSSGKVAISAKEIEEDNIGAQVLGLFTLSTGQDIWNQTN
# B15: PRT-29 (protein)
# chain: MANQEIRYSEVTPYHVTSVWTKGVTPPANFTQGEDVFHAPYVANQGWYDITKTFNGKDDLLCGAATAGNMLHWWFDQNKDQIKRYLEEHPEKQKINFNGEQMFDVKEAIDTKNHQLDSKLFEYFKEKAFPYLSTKHLGVFPDHVIDMFINGYRLSLTNHGPTPVKEGSKDPRGGIFDAVFTRGDQSKLLTSRHDFKEKNLKEISDLIKQELTEGKALGLSHTYANVRINHVINLWGADFDSNGNLEAIYVTDSDSNASIGMKKYFVGVNSAGKVAISAKEIEEDNIGAQVLGLFTLSTGQDSWNQTN
# B16: PRT-290 (protein)
# chain: MVTSVWTKGVTPPADFTQGEDVFHAPYVANQGWYDITKTFNGKDDLLCGAATAGNMLHWWFDQNKEYIEAYLKKHPEKQKIMFGDQELLDVRKAINTKGSQKNSELFNYFRDKAFPNLSARRLGVMPDLVLDMFINGYYLNVTKTQTTDVNRTYQEKDKRGGIFDAVFTRGDQSKLLTSRHDFKEKGLKEISDLIKQELTEGKALGLSHTYANVRIGHVINLWGADFDSDGNLKAIYVTDSDSNASIGMKKYFVGVNSSGKVAISAKEIKEDNIGAQVLGLFTLSTGQDIWNQTN
# B17: PRT-306 (protein)
# chain: B16 chain with A14T, T17I, Q18K, V28D, N30G, T39E, F253G, S259A
# B18: PRT-298 (protein)
# chain: B16 chain with A14T, T17I, Q18K, V28K, N30G, R215G, G217N
# B19: PRT-250 (protein)
# chain: MVTSVWTKGVTPPTNFTYGEDVLHAPYVANQGWYDITKLFNGKDDLLCGAATAGNMLHWWFDQNKEQIENYLKKHPEKQKINFNGEQMFDVKEAIDTKDSQLDSKLFDYFKEKAFPNLSTKHLGVFPDHVIDMFINGYRLSLLNHGPTPVKRGSKDPRGGIFDAVFTRGDQSKLLTNRHDFKEKTLKEISDLIKQELTEGKALGISHTYANGRINHVINLWGADFDAEGNLEAIYVTDSDSNPSIGMKKYFVGVNSSGKVAISAKEIEEDNIGAQVLGLFTLSTGQDIWNQTN
# B20: PRT-258 (protein)
# chain: B19 chain with D108E, K111L, N117Y, L143T, G212V, Y235A, P243A
# B21: PRT-266 (protein)
# chain: B19 chain with N15D, T17I, V28K, N30G, L39T, D108E, F181L, E183N, G212V, P243A
# Molecular target: pooled human IgG
Protein,Enzyme Activity Endpoint Assay (purified): Fab'2 [ng/µL],Enzyme Activity Endpoint Assay (purified): Fc [ng/µL],Enzyme Activity Endpoint Assay (purified): IgG [ng/µL],Enzyme Activity Endpoint Assay (purified): scIgG [ng/µL],Enzyme Activity Endpoint Assay: Fab′2 [ng/µL],Enzyme Activity Endpoint Assay: Fc [ng/µL],Enzyme Activity Endpoint Assay: IgG [ng/µL],Enzyme Activity Endpoint Assay: scIgG [ng/µL]
B1,506,381,387,0,,,,
B2,493,369,352,0,,,,
B3,,,,,52,131,18,16
B4,,,,,56,123,20,0
B5,,,,,16,89,14,44
B6,,,,,3,73,21,65
B7,,,,,44,112,14,13
B8,,,,,48,124,14,17
B9,,,,,40,101,11,14
B10,,,,,44,100,23,21
B11,,,,,46,126,13,15
B12,69,150,34,413,,,,
B13,599,286,101,174,,,,
B14,1040,425,0,0,,,,
B15,,,,,19,95,27,43
B16,191,151,179,0,,,,
B17,467,336,341,0,,,,
B18,494,240,147,35,,,,
B19,313,310,86,454,,,,
B20,762,425,0,0,,,,
B21,698,401,0,0,,,,
